Reference: article PMC2625307

How the values were obtained:
[1] = target: SIVcpz GAB-1 fl envelope (SIVcpz (P.t.t)) (UniProt P17281)
[2] = target: HIV-1 MN-25 envelope (HIV-1 group M)
[3] = target: HIV-1 SUMA d736-68 envelope (HIV-1 group M)
[4] = target: HIV-1 SUMA d736-73 envelope (HIV-1 group M)
[5] = target: HIV-1 MN-8 envelope (HIV-1 group M)
[6] = target: HIV-1 WEAU 16-8M envelope (HIV-1 group M)
[7] = target: HIV-1 NL4.3 envelope (HIV-1 group M)
[8] = target: SIVcpz GAB-2 62 fl envelope (SIVcpz (P.t.t))
CD4M33 = assay: SPR
[Phe^23]M47 = SPR
CD4M47 = assay: SPR
[Phe^23]M33 = SPR

Sequence of SIVcpz GAB-1 fl envelope (SIVcpz (P.t.t)) (P17281 32-854): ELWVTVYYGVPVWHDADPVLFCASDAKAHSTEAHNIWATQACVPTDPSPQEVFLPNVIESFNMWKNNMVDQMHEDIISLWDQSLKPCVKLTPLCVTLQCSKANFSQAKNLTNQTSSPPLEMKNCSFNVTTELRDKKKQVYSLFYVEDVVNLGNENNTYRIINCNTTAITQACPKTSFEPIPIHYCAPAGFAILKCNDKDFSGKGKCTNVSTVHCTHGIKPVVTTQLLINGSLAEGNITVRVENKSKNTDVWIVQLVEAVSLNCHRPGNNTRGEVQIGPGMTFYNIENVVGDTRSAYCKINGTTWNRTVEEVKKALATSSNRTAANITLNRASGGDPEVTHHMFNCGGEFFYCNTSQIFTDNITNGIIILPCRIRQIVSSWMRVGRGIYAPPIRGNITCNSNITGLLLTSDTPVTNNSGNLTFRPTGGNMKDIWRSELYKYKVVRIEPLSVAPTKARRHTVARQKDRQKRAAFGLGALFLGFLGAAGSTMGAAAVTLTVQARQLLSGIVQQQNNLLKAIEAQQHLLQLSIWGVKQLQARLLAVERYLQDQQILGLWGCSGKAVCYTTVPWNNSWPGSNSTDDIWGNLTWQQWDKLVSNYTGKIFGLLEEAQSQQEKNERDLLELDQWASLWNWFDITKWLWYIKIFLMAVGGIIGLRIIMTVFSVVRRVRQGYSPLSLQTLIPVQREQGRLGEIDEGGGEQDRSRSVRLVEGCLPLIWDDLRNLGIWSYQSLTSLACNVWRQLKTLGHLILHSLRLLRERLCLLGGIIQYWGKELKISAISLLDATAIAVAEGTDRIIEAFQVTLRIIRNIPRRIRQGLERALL

Row | Substance | IC50 of neutralisation, HIV-entry assay on JC53BL-13 indicator cells [1] [nM] | IC50 of neutralisation, HIV-entry assay on JC53BL-13 indicator cells [2] [nM] | IC50 of neutralisation, HIV-entry assay on JC53BL-13 indicator cells [3] [nM] | IC50 of neutralisation, HIV-entry assay on JC53BL-13 indicator cells [4] [nM] | IC50 of neutralisation, HIV-entry assay on JC53BL-13 indicator cells [5] [nM] | IC50 of neutralisation, HIV-entry assay on JC53BL-13 indicator cells [6] [nM] | IC50 of neutralisation, HIV-entry assay on JC53BL-13 indicator cells [7] [nM] | IC50 of neutralisation, HIV-entry assay on JC53BL-13 indicator cells [8] [nM] | Kd (CD4M33) [nM] | koff (CD4M33) [s⁻¹] | kon (CD4M33) [M⁻¹ s⁻¹] | Kd ([Phe^23]M47) [nM] | koff ([Phe^23]M47) [s⁻¹] | kon ([Phe^23]M47) [M⁻¹ s⁻¹] | Kd (CD4M47) [nM] | koff (CD4M47) [s⁻¹] | kon (CD4M47) [M⁻¹ s⁻¹] | Kd ([Phe^23]M33) [nM] | koff ([Phe^23]M33) [s⁻¹] | kon ([Phe^23]M33) [M⁻¹ s⁻¹]
1 | CD4M33 (designed binder) | 340 | 350 | 4 | 480 | 34 | 85 | 5 | 400 |  |  |  |  |  |  |  |  |  |  |  | 
2 | CD4M47 (designed binder) | 150 | 150 | 3 | 370 | 11 | 64 | 3 | 230 |  |  |  |  |  |  |  |  |  |  |  | 
3 | YU2 gp120 (from UniProt P35961 32-498) (natural protein) |  |  |  |  |  |  |  |  | 12.5 | 0.00272 | 218000 | 3.87 | 0.000427 | 110000 | 2.12 | 0.000741 | 349000 | 35.1 | 0.00475 | 135000
4 | [Phe^23]M33 (designed binder) | 350 | 3600 |  | 8500 | 85 | 130 | 13 | 1000 |  |  |  |  |  |  |  |  |  |  |  | 
5 | [Phe^23]M47 (designed binder) | 69 | 320 | 7 | 950 | 15 | 47 | 4 | 290 |  |  |  |  |  |  |  |  |  |  |  | 
